Laboratory results published in PMC8443317.

Biological target: recombinant human angiotensin-converting enzyme 2 (ACE2) receptor, biotinylated (human) (UniProt Q9BYF1)
Test: SPR

Row | Substance | Kd | koff | kon
1 | SARS-CoV-2 spike S1 variant D614G (domain or fragment) | 42.2 nM | 0.00578 s⁻¹ | 138000 M⁻¹ s⁻¹
2 | recombinant original SARS-CoV-2 spike S1 protein (domain or fragment) | 10.5 nM | – | –
